Reference: patent US20210348144 (published 2021)

Tests used:
LbCas12a S1020E [1] = molecular target: T1, LbCas12a S1020E (Lachnospiraceae bacterium ND2006); assay: cell_activity; WT 7.70; 50 nM RNP, HEK293, T7EI 48 h; PAM of site not stated
LbCas12a P799V [2] = molecular target: T2, LbCas12a P799V (Lachnospiraceae bacterium ND2006); assay: as above
LbCas12a E795Q [3] = molecular target: T3, LbCas12a E795Q (Lachnospiraceae bacterium ND2006); assay: as above
LbCas12a G146R [4] = molecular target: T4, LbCas12a G146R (Lachnospiraceae bacterium ND2006); assay: as above
[5] = molecular target: T5, LbCas12a G146R/R182V/E795Q (RVQ) (Lachnospiraceae bacterium ND2006); assay: as above
LbCas12a W890A [6] = molecular target: T6, LbCas12a W890A (Lachnospiraceae bacterium ND2006); assay: as above
LbCas12a R182V [7] = molecular target: T7, LbCas12a R182V (Lachnospiraceae bacterium ND2006); assay: as above
LbCas12a K1121D [8] = molecular target: T8, LbCas12a K1121D (Lachnospiraceae bacterium ND2006); assay: as above
LbCas12a T152K [9] = molecular target: T9, LbCas12a T152K (Lachnospiraceae bacterium ND2006); assay: as above
LbCas12a E981V [10] = molecular target: T10, LbCas12a E981V (Lachnospiraceae bacterium ND2006); assay: as above
LbCas12a S1020E [11] = molecular target: T1, LbCas12a S1020E; assay: cell_activity; WT 15.77; 50 nM RNP, HEK293, T7EI 48 h; PAM of site not stated
LbCas12a P799V [12] = molecular target: T2, LbCas12a P799V; assay: as above
LbCas12a E795Q [13] = molecular target: T3, LbCas12a E795Q; assay: as above
LbCas12a G146R [14] = molecular target: T4, LbCas12a G146R; assay: as above
[15] = molecular target: T5, LbCas12a G146R/R182V/E795Q (RVQ); assay: as above
LbCas12a W890A [16] = molecular target: T6, LbCas12a W890A; assay: as above
LbCas12a R182V [17] = molecular target: T7, LbCas12a R182V; assay: as above
LbCas12a K1121D [18] = molecular target: T8, LbCas12a K1121D; assay: as above
LbCas12a T152K [19] = molecular target: T9, LbCas12a T152K; assay: as above
LbCas12a E981V [20] = molecular target: T10, LbCas12a E981V; assay: as above

B1: crRNA-2 HPRT 38094-S-23 ; HPRT 38094-S protospacer (DNA equivalent of crRNA-2 spacer) (ssRNA ; dsDNA)
RNA: UAAUUUCUACUAAGUGUAGAUAUAGUCUUUCCUUGGGUGUGUUA
DNA 1: ATAGTCTTTCCTTGGGTGTGTTA
DNA 2: TAACACACCCAAGGAAAGACTAT
For B1, the activity (LbCas12a S1020E [1]) was 4.27 % editing, the activity (LbCas12a P799V [2]) was 16.7 % editing and the activity (LbCas12a E795Q [3]) was 9.77 % editing. The activity (LbCas12a G146R [4]) was 16.2 % editing, the activity [5] was 32.8 % editing and the activity (LbCas12a W890A [6]) was 3.8 % editing. The activity (LbCas12a R182V [7]) was 10.4 % editing, the activity (LbCas12a K1121D [8]) was 3.65 % editing and the activity (LbCas12a T152K [9]) was 20.9 % editing. It also gave an activity (LbCas12a E981V [10]) of 13.8 % editing.

B2: crRNA-4 HPRT 38486-S-23 ; HPRT 38486-S protospacer (DNA equivalent of crRNA-4 spacer) (ssRNA ; dsDNA)
RNA: UAAUUUCUACUAAGUGUAGAUUUGUAGGAUAUGCCCUUGACUAU
DNA 1: TTGTAGGATATGCCCTTGACTAT
DNA 2: ATAGTCAAGGGCATATCCTACAA
B2 was tested, and the activity (LbCas12a S1020E [11]) was 7.6 % editing, the activity (LbCas12a P799V [12]) was 30.7 % editing and the activity (LbCas12a E795Q [13]) was 26.8 % editing. For the same binder, the activity (LbCas12a G146R [14]) was 32.2 % editing, the activity [15] was 51.5 % editing and the activity (LbCas12a W890A [16]) was 4.27 % editing. The activity (LbCas12a R182V [17]) was 29.1 % editing, the activity (LbCas12a K1121D [18]) was 6.87 % editing and the activity (LbCas12a T152K [19]) was 18.6 % editing. The activity (LbCas12a E981V [20]) was 26.4 % editing.
